According to US20240417484A1, “ANTIGEN-BINDING POLYPEPTIDES AGAINST CD73” (UNIVERSITÄTSKLINIKUM HAMBURG-EPPENDORF, priority 2021, published 2024):

Legend:
soluble human CD73 [1] = target: T1, soluble human CD73 (Homo sapiens, UniProt P21589); assay: Off-rates of soluble CD73 from immobilized Nb-rbIgG hcAb on Octet BLI; type: binding; details: soluble human CD73 ectodomain 200 ng/μl as analyte; Nb-rbIgG hcAb immobilized on protein A biosensor
T1 construct: The ectodomain of CD73 (aa 27-549) was expressed as a recombinant protein with a C-terminal His6× tag; His6 (C); made in house; host or cells: transiently transfected HEK cells
T1 sequence (P21589 27-549): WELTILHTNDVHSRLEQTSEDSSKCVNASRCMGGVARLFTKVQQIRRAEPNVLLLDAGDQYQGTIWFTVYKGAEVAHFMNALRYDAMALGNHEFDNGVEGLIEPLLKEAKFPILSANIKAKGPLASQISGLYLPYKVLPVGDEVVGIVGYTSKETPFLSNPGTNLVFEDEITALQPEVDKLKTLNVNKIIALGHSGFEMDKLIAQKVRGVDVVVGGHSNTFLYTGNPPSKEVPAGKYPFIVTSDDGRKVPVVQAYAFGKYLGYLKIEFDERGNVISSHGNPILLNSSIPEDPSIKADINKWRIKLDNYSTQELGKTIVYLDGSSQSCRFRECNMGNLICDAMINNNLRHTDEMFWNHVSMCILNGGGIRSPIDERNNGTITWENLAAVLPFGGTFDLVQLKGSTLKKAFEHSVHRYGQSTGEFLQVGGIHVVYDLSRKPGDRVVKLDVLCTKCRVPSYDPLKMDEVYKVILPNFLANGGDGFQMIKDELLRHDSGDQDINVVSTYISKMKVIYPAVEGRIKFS
Experimental: The binding off-rate constants of bivalent hcAbs to human and mouse CD73 protein were determined by […] kinetic analysis on Octet RED96 (ForteBio). Immobilization of rabbit IgG hcAbs on the protein A-biosensor surface was done in HEK-6E cell supernatant, and regeneration of analytes was done with 100 mM Glycin pH=2.5. Recombinant mouse or human CD73 ectodomain was used as analytes and tested at a saturating dose of 200 ng/μl. Sensorgrams were fitted using least square regression in association than dissociation Model in Prism8 (Graphpad).

[2] = target: T2, human CD73-transfected HEK cells (Homo sapiens, UniProt P21589); assay: Epitope binning by flow cytometry (human IgG hcAb blocks rabbit IgG hcAb); type: binding; details: epitope assignment on human CD73 from binning
T2 construct: expressed in transfected cells; stably transfected in method 5.1)
T2 sequence (P21589 27-549): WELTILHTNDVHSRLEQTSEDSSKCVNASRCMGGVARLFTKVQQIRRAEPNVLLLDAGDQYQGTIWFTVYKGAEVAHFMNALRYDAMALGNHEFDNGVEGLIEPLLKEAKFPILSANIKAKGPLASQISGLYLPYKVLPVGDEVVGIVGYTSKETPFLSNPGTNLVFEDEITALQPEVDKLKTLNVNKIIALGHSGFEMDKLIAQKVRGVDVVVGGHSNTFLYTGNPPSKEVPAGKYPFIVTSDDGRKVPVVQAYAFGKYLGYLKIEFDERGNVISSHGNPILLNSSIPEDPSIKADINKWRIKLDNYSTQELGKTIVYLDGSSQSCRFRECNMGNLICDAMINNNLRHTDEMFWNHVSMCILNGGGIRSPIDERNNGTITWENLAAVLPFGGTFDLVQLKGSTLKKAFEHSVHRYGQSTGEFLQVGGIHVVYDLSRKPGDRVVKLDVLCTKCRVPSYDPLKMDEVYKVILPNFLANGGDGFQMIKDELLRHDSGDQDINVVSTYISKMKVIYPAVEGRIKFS
Experimental: (§1) • 5.1 Untransfected HEK293 cells and HEK293 cells stably transfected with human or mouse CD73 were incubated for 30 min with HEK-6E cell supernatants containing rabbit IgG hcAbs (diluted 1:10 in PBS/0.1% BSA). Following washing with PBS/0.1% BSA, bound antibodies were detected with PE-conjugated goat anti-rabbit IgG polyclonal antibody (711-116-152 Dianova, Hamburg). • 5.2 For dissociation analyses, two separate aliquots of CD73-transfected cells were incubated either with Cell Proliferation Dye eFluor 450 (eBioscience) or with hcAbs for 20 min at RT. Cells were washed four times, mixed at a 1:1 ratio and further incubated at RT for 120 min before staining of bound antibodies with PE-conjugated goat anti-rabbit IgG polyclonal antibody. The dissociation of hcAbs from the target cells and association with the eFluor 450 labeled cells was analyzed by flow cytometry using the FlowJo software (Treestar). • 5.3 For epitope analyses, cells were preincubated with excess human IgG hcAbs (10 μl HEK-6E cell supernatant/100 μl PBS/0.1% BSA) for 30 min at RT before addition of Nb-rabbit IgG hcAbs (1 μl HEK-6E cell supernatant/100 μl PBS/0.1% BSA) and further incubation for 20 min at RT and staining with PE-conjugated anti-rabbit polyclonal antibody (711-116-152 Dianova, Hamburg). Cells were washed and analyzed by flow cytometry on a BD-FACS Canto. Data were analyzed using the FlowJo software (Treestar).
To evaluate the epitopes on the CD73 protein recognized by different VHHs, representative rabbit IgG hcAbs were binned against a set of human IgG hcAbs, and bound hcAbs were detected with a PE-conjugated anti-rabbit IgG secondary antibody. Cells were pre-incubated with excess human IgG hcAbs for […] at RT to block specific epitopes before addition of rabbit IgG hcAbs as detectors and further incubation for 15 min at RT. Cells were washed, and bound antibodies were detected with PE-conjugated anti-rabbit IgG polyclonal antibody. Cells were washed and analyzed by flow cytometry on a BD-FACS Canto. Data were analyzed using the FlowJo software (Treestar). Lack of blockade by a non-binding control human IgG hcAb served as negative control (unblocked), and blockade of binding with the same VHH carrying human IgG hcAb as the rabbit IgG hcAb used for detection served as positive controls for blocking. Values for blocking were determined by comparing the mean fluorescence intensities (MFIs) of PE staining of transfected cells for unblocked vs blocked rabbit hcAbs using the formula: inhibition (%)=100−(MFI (blocked)/MFI MFI(unblocked)*100). The values were rounded to whole percentages.

soluble human CD73 [3] = target: T1, soluble human CD73; assay: AMP hydrolysis by soluble CD73, DPEA-Napht-Azide fluorescence assay; type: biochemical; details: 50 ng CD73, 30 min pre-incubation with 10 μl hcAb supernatant, 1 mM AMP
Experimental: Recombinant human CD73 (50 ng) was pre-incubated for 30 min with hcAbs at RT in 96 well plates before addition of AMP and DPEA-Napht-Azide. Fluorescence signals were detected every 50 seconds for 30 repeats. ARFU values (>10^3/min) were calculated for a 10 min interval during the linear phase (from 5 min to 15 min) using Prism software (Graphpad). A non-specific rabbit IgG hcAb was used as control.
• 4.1 CD73 catalyzes the hydrolysis of AMP to adenosine. This reaction can be monitored by the shift in fluorescence intensity of DPEA-Napht-Azide. This property was used to determine whether hcAbs could interfere with the enzymatic activity of CD73. Soluble recombinant human CD73 (50 ng) was pre-incubated for 30 min with Nbs or hcAbs (10 μl HEK-6E cell supernatant containing 10-100 μg/ml hcAb) at RT in 96 well plates before addition of AMP (Sigma) to a final concentration of 1 mM and of DPEA-Napht-Azide to a final concentration of 50 μM. • 4.2 Fluorescence signals were recorded in white Nunc MicroWell plates (Nunc, 136101) on a Victor III plate reader (Perkin Elmer) (Exicitation filter: F485, Emission Filter: F535; CW-Lamp energy: 40000, counting time: 0.1 s). Data analyses were performed using Prism (Graphpad).
Soluble recombinant human CD73 (50 ng) was pre-incubated for 30 min with CD73-specific hcAbs or an irrelevant control hcAb (10 μl HEK-6E cell supernatant) at RT in 96 well plates before addition of AMP (Sigma) to a final concentration of 1 mM and of DPEA-Napht-Azide to a final concentration of 50 μM. Fluorescence signals were detected every 50 seconds for 30 repeats. Data analyses were performed using Prism (Graphpad).

[4] = target: T3, CD73-expressing human AML-OCI3 cells (Homo sapiens, UniProt P21589); assay: AMP degradation by cell bound CD73, luminometric AMPglow assay; type: cell-based; details: AML-OCI3 cells; 10 μl supernatant of single clone or 5+5 μl of two clones
T3 construct: CD73-expressing human AML-OCI3 cells (AML cell line); endogenous in cells; host or cells: OCI-AML3 human AML cell line
T3 sequence (P21589 27-549): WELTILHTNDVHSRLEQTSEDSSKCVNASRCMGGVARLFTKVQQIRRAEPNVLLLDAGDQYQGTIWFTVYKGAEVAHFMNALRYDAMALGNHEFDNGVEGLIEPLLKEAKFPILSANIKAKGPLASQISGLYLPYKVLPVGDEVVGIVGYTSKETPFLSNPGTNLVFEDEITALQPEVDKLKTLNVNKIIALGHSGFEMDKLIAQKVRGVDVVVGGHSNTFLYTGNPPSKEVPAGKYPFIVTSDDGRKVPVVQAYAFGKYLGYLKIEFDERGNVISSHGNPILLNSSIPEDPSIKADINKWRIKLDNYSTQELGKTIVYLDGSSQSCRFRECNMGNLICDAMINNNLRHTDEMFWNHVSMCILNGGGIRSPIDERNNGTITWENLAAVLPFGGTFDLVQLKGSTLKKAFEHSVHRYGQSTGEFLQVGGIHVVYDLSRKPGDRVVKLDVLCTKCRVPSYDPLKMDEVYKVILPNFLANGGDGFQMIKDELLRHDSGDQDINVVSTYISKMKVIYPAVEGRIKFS
Experimental: AMP was added and AMP degradation was measured using the luminometric AMPglow assay. Data analyses were performed using Prism (Graphpad).
Soluble recombinant human CD73 or CD73-expressing human […] cells were incubated with CD73-specific dimeric clones SB116-rbFc, SB188-rbFc, biparatopic SB116-188-Alb trimers or with non-binding L-10e-rbFc clone (control). AMP was added and AMP degradation was measured using the luminometric AMPglow assay. Data analyses were performed using Prism (Graphpad).

human CD73 = target: T4, human CD73 (Homo sapiens, UniProt P21589); assay: Flow cytometry binding of rabbit IgG hcAbs to human CD73-transfected HEK cells; details: family representative clone; h = binds human CD73, m = binds mouse CD73
T4 construct: expressed in transfected cells; stably transfected in method 5.1)
T4 sequence (P21589 27-549): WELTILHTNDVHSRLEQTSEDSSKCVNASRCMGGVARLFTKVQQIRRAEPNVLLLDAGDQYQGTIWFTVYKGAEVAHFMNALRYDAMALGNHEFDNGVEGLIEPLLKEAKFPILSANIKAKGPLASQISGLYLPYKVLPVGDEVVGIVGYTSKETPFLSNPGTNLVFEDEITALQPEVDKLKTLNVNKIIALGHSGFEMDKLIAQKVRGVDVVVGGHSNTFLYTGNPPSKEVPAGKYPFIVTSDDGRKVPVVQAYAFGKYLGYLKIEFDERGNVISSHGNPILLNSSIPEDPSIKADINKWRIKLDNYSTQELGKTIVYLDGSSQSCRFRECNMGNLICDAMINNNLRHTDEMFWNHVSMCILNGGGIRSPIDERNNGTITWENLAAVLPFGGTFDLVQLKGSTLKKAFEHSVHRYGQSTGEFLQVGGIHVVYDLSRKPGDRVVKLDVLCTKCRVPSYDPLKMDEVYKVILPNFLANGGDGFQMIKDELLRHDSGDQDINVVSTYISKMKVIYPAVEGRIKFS
Experimental: HEK cells were co-transfected with expression vectors for green fluorescent protein (GFP) and human CD73, mouse CD73, and a control cell surface protein (CD39). 48 h after transfection, cells were incubated with HEK cell supernatants containing the indicated rabbit IgG hcAbs. Bound antibodies were detected with PE-conjugated anti rabbit IgG secondary antibody.
as §1
The binding specificities of the purified hcAbs were determined by flow cytometry using HEK cells transiently co-transfected with expression vectors for GFP and either mouse CD73, human CD73 or a control protein (CD39). 1×10^6 cells were incubated with 10 μl of the Nb-rbIgG hcAb containing HEK-6E cell supernatants for 30 min at 4° C. After washing, the cells were incubated with PE-conjugated anti-rabbit IgG polyclonal antibody (711-116-152 Dianova, Hamburg) and washed twice. The cells were resuspended in PBS and analyzed by flow cytometry on FACS Canto or FACS Celesta (BD Biosciences, Heidelberg). Data evaluation was conducted using the software FlowJo (Treestar, Stanford, US).

B1: SB141: CD73-specific alpaca VHH clone, family 2 in Tables 2-3, SEQ ID NO:72; tested as rabbit or human IgG hcAb (antibody)
heavy: QVQLVESGGGLVQPGGSLRLSCAASGFTFINYHMSWLRQAPGKGLEWVSEIHSRGDITSYTNSVKGRFTISRDNAKNTLYLQMNSLKFDDTAVYYCARSRDLFNEGEYDYWGRGTQVTVSS
modifications: left off: a dimerising Fc or GST
notes: tested as rabbit or human IgG hcAb
- Kdis (soluble human CD73 [1]): 0.00045 s⁻¹
- Epitope [2]: 2
- effect on hydrolysis of AMP by soluble CD73 (soluble human CD73 [3]): did not

B2: SB143: CD73-specific alpaca VHH clone, family 4 in Tables 1-3, SEQ ID NO:69; tested as rabbit or human IgG hcAb (antibody)
heavy: QVQLVESGGGLVQAGGSLRLSCAASGRTFSRSTMGWFRQAPGKERVFVAAIRWIGGTTTYGDSVKGRFTISVDNAKNTLYLQMNSLKPEDTAVYYCAATAGGPYYLGGRDILYDYWGQGTQVTVSS
modifications: left off: a dimerising Fc or GST
notes: as for B1
- Kdis (soluble human CD73 [1]): 0.0013 s⁻¹
- Epitope [2]: 1
- effect on hydrolysis of AMP by soluble CD73 (soluble human CD73 [3]): inhibited CD73 catalyzed hydrolysis of AMP
- inhibition of AMP degradation [4]: pronounced inhibition of AMP degradation

B3: SB144: CD73-specific alpaca VHH clone, family 4 in Tables 1-2, SEQ ID NO:70; tested as rabbit IgG hcAb (antibody)
heavy: QVQLVESGGGLVQAGGSLRLSCAASGRTFSGSTMGWFRQAPGKERAFVAAIRWIGGTAKYGDSVKGRFTISIDNAKNTLYLQMNSLKPEDTAVYYCAATAGGPDYLGGRDIVYDYWGQGTQVTVSS
modifications: left off: a dimerising Fc or GST
notes: tested as rabbit IgG hcAb
- specificity (human CD73): h + m
- Kdis (soluble human CD73 [1]): 0.00023 s⁻¹
- effect on hydrolysis of AMP by soluble CD73 (soluble human CD73 [3]): inhibited CD73 catalyzed hydrolysis of AMP
- inhibition of AMP degradation [4]: pronounced inhibition of AMP degradation
